Results from the nanobody polyreactivity screen of Harvey et al. (2022).

experiment: yeast display, Sf9 membrane polyspecificity reagent, FACS + sequencing; frameworks hold sequencing errors
In short: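 A nanobody's polyreactivity label depends on the gate it was sorted from. Yeast display cells were stained with 10% biotinylated, detergent-solubilized Sf9 membrane reagent for 1 hour at 4 °C, enriched on streptavidin microbeads and sorted by FACS. The low and high (top ~1%) gates were set on anti-HA fluorescence for expression and streptavidin fluorescence for reagent binding.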

Sequence | polyreactivity (PSR sort gate)
QVQLVESGGGLVQAGGSLRLSCAASGRTFKYYAMGWYRQAPGIEREFVAAITVSGGSTYYADSVKGRFTISRDNAKNPVYLQMNSLKPEDTAVYYCAARYQRYSSKTIQNEDYWGQGTQVTVSS | high polyreactivity
QVQLVESGGGLVQAGGSLRLSCAASGRTFKYYAMGWYRQAPGKERELVAAISRGGSTNYADSVKGRFTISRDNAKNTVYLQVNSLKPEDTPVYYCAKDYVWYDEYDYWGQGTQVTVSS | low polyreactivity
QVQLVESGGGLVQAGGSLRLSCAASGRTFKYYAMGWYRQAPGKERELVATITYSGGSTYYADSVKGRFTISRDNAKNTVYLQMNSLKPEDTAVYYCNKVIFLSQSSYSFHYAYDYWGQGTQVTVSS | high polyreactivity
QVQLVESGGGLVQAGGSLRLSCAASGRTFLEKAMGWYRPAPGKEREFVAANTYSSGSTFYADSVKGRFTISRDNAKNTVYLQMNSLKPEDTAVYYCAARFWYRHARWYDYWGQGTQVTVSS | high polyreactivity
QVQLVESGGGLVQAGGSLRLSCAASGRTFLFNTMGWYRQAPGKERELVAAITRRGGSTYYADSVKGRFTISRDNAKNTVYLQMNSLKPEDTAVYYCNAPAYSPPGYYWGQGTQVTVSS | low polyreactivity
QVQLVESGGGLVQAGGSLRLSCAASGRTFLGYAMGWYRQAPGKERELVAAISGSGDRTYYADSVKGRFTISRDNAKNTVYLQMNSLKPEDTAVYYCNAVTVRYYASYYGRGMDYWGQGTQVTVSS | high polyreactivity
QVQLVESGGGLVQAGGSLRLSCAASGRTFLGYAMGWYRQAPGKERELVAAISSSGGRTYYADSVKGRFTISRDNAKNTVYLQMNSLKPEDTAVYYCNAPRIVLCGYEYWGQGTQVTVSS | high polyreactivity
QVQLVESGGGLVQAGGSLRLSCAASGRTFLIYAMGWYRQAPGKERELVAAINNGGSTYYADSVKGRFTISRDNAKNTVYLQMNSLKPEDTAVYYCAARQIRATRYYYWGQGTQVTVSS | high polyreactivity
QVQLVESGGGLVQAGGSLRLSCAASGRTFLKYTLGWYRQAPGKERELVAAISGSGGSTYYADSVKGRFTISRDNAKNTVYLQMNSLKPEDTAVYYCAAAIVRHYQTGYYWGQGTQVTVSS | high polyreactivity
QVQLVESGGGLVQAGGSLRLSCAASGRTFLLNAMGWYRQAPGKERELVAAITRSGVITYYADSVKGRFTISRDIAKNTVYFQMNSLKPEDTAVFYCAAQLRYSYLRPSYYYWGQGTQVTVSS | high polyreactivity
QVQLVESGGGLVQAGGSLRLSCAASGRTFLNNAMGWYRQAPGKERELVAAITKSGGSTYYADSVKGRFTISRDNAKNTVYLQMNSLKPEDTAVYYCAAARRYYTYYREDYYYWGQGTQVTVSS | high polyreactivity
QVQLVESGGGLVQAGGSLRLSCAASGRTFLNYAMGWYRQAPGKEREFVAAITWRVGTTYYADSVKGRFTISRDNAKNTVYLQMNSLKPEDTAVYYCAARSRTGRYDYWGQGTQVTVSS | high polyreactivity
QVQLVESGGGLVQAGGSLRLSCAASGRTFLPNAMGWYRQAPGKERELVAVITSGGSTNYADSVKGRFTISRDNAKNTVYLQMNSLKQEDTAVYYCAARRWSSSQGHWGKSAGYGYWGQGTQVTVSS | low polyreactivity
QVQLVESGGGLVQAGGSLRLSCAASGRTFLPNDMGWYRQAPGKERELVAAITDSGGDTYYADSVKGRFTISRDNAKNTVYLQMNSLKPEDTAVYYCAADYYYYGSYYPVEYWGQGTQVTVSS | high polyreactivity
QVQLVESGGGLVQAGGSLRLSCAASGRTFLQYAMGWYRQAPGKERELVATISFSGGSTYADSVKGRFTISRDNAKNTVYLQMNSLKPEDTAVYYCNAGIRYFVVGRSSYDYWGQGTQVTVSS | low polyreactivity
QVQLVESGGGLVQAGGSLRLSCAASGRTFLRYAMGWYRQAPGKEREFVAAISYSGSRTYYADSVKGRFTISRDTAKKTVYLQMNSLKPEDTAVYYCATDSDARVELAGYDYWGQGTQVTVSS | high polyreactivity
QVQLVESGGGLVQAGGSLRLSCAASGRTFLRYTMGWYRQAAGKERELVAVITNGGTRTYYADSVKGRFTISRDNAKNTVYLQMNSLKPEYTAVYYCAARVRYTANYDYWGQGTQVTVSS | high polyreactivity
QVQLVESGGGLVQAGGSLRLSCAASGRTFLRYTMGWYRQAPGKERELVASITRGGSTYYADSVKGRFTISRDNAKNTVYLQMNSLKPEDTAVYYCAAGKALLSRYDYWGQGTQVTVSS | high polyreactivity
QVQLVESGGGLVQAGGSLRLSCAASGRTFLSNAMGWYRQAPGKERELVAAISNGDNTYYADSVKGRFTISRDNAKNTVVLQMNSLKPEDTAVYYCAADQYWSWIYYPVVEYDYWGEGTQVTVSS | low polyreactivity
QVQLVESGGGLVQAGGSLRLSCAASGRTFLVNAMGWYRQAPGKEREFVAAITSRSGRTNYADSVKGRFTISRDNAKNTVYLEMNSLKPEDTAVYYCNAEGYTVKYWYSRYDYWGQGTQVTVSS | high polyreactivity
QVQLVESGGGLVQAGGSLRLSCAASGRTFLWNAMGWYRQAPGKERELITYYADSVKWRFTISRDNAKNTVYLQMNSLKPEDTAVYYCAAEQGSSVLYDSWGQGTQVTVSS | low polyreactivity

Sequence | polyreactivity (PSR sort gate)
QVQLVESGGGLVQAGGSLRLSCAASGRTFLWNDMGWSRQAPGKERELVAAITGSDGTYADSVKGRFTISRDNAKNTVYLQMNSLKPEDTAVYYCAAETYWYFPWKYDYWGQGTQVTVSS | low polyreactivity
QVQLVESGGGLVQAGGSLRLSCAASGRTFLWYTMGWYRQAPGKERELVAAISGSGGSTYYADSVKGRFTISRDNAKNTVYLQMNSLKPEDTAVYYCNAVRGYRYDYWGQGTQVTVSS | high polyreactivity
QVQLVESGGGLVQAGGSLRLSCAASGRTFLYNAMGWYRQAPGKERELVAAIRRGSSTYYADSVKGRFTISRDNAMNTVYLQMNSLKPEDTAVYYCAARGRYRIGPGRYGKRYDYWGQGTQVTVSS | high polyreactivity
QVQLVESGGGLVQAGGSLRLSCAASGRTFLYNAMGWYRQAPGKERELVASISYSGGSTYYADSVKGRFTISRDTAKYTVYLQMNSLKPEDTAGYYCAARFYASQDIRYDYWGQGTQVTVSS | high polyreactivity
QVQLVESGGGLVQAGGSLRLSCAASGRTFLYNARGWSRQAPGKEMELVAAITKSGGSKYYADSVKGRFTISRDNAKNTVYLQMNSLKPEDTAVYYCAAARRYYTYYREDYYYWGQGTQVTVSS | high polyreactivity
QVQLVESGGGLVQAGGSLRLSCAASGRTFLYYAMGWYRQAPGKERELVAGITSGGSTNYADSVKGRFTISRDNAKNTVYLQMNSLKPEDTAVYYCAVDQGYSRTADVNYDYWGQGTQVTVSS | low polyreactivity
QVQLVESGGGLVQAGGSLRLSCAASGRTFLYYVMGWYRQAPGKERELVAAITNRGGSTYYADSVKGRFTISRDNAKNTVYLQLNSLKPEDTAVYYCNAPYGVYWSSTYYYWGQGTQVTVSS | high polyreactivity
QVQLVESGGGLVQAGGSLRLSCAASGRTFMKNTMGWYIQAPGKERELVAVITRNGDSTYADSVKGRFTISRDNAKNTVYLQKNSLKPEDTAVFYCNVGSYRYRRYDYWGQGTQVTVSS | high polyreactivity
QVQLVESGGGLVQAGGSLRLSCAASGRTFNAYTMGSYRPAPGKERELVAAITSSGGNTYYADSVKGRFTISRDNAKNTVYLQMNSLKPEDTAVYYCNTVYLYGTHDYWGQGTQVTVSS | low polyreactivity
QVQLVESGGGLVQAGGSLRLSCAASGRTFNGNAMGWYRQAPGKERELVAGISTSDGSTYYADSVKGRFTISRDNAKNTVYLQMNSLKPVDTAVYDCAAYSHHQFSSSEYYYWGQGTQLTVSS | low polyreactivity
QVQLVESGGGLVQAGGSLRLSCAASGRTFNGYAMGWYRQAPGKERELVAAISSSGGSTYYADSVKGRFTISRDNAKNTVYLQMNSLKPEDTAVYYCAARRANGFNYWGQGTQVTVSS | high polyreactivity
QVQLVESGGGLVQAGGSLRLSCAASGRTFNGYAMGWYRQAPGKERELVAAITWNGGRTSYADSVKGRFTISRDNAKNTVYLQMNSLKPEDTAVYYCATAVLYPYFFSNMDYWGQGTQVTVSS | low polyreactivity
QVQLVESGGGLVQAGGSLRLSCAASGRTFNGYAMGWYRQAPGKERELVASISWSGGRTYYADSVKGRFTISRDNAKNTVYLQMNSLIPEDTAVYYCNAYYYRVPRPWFDYWGQGTQVTVSS | high polyreactivity
QVQLVESGGGLVQAGGSLRLSCAASGRTFNGYVMGWYRQAPGKEREFVAVINWSGGNTYYADSVKGRFTISRDNAKNTVNLQMNSLKPEDTAVYYCAARRVRSYAYDYWGQGTQVTVSS | high polyreactivity
QVQLVESGGGLVQAGGSLRLSCAASGRTFNGYVMGWYRQAPGKERELVAAITNRDGSTYYADSVKGRFTISRDNAKNTVYLQMNSLKPEDTAVYYCAAPVWLWADRYDSWGQGTQVTVSS | low polyreactivity
QVQLVESGGGLVQAGGSLRLSCAASGRTFNIYAMGWYRQAPGKERELVAAISKRGGTTYYADSVKGRFTISRDNAKNTVYLQMNSLKPEDTAVYYCAADRTNPYYGGMDYWGQGTQVTVSS | high polyreactivity
QVQLVESGGGLVQAGGSLRLSCAASGRTFNIYAMGWYRQEPGKERELVAAITNNGGRTYYADSVKGRFTISRDNAKNTVYLQMNSLKPEDTAVYYCAAVSGRSYDKYYYWGQGTQVTVSS | high polyreactivity
QVQLVESGGGLVQAGGSLRLSCAASGRTFNRNAMGWYRQAPGKERELVAAISRGGGGTFYADSVKGRFTISRDNAKNTVYLQMNSLKPEDTAVYYCAAVPIAADKANGYDYWGQGTQVTVSS | low polyreactivity
QVQLVESGGGLVQAGGSLRLSCAASGRTFNRYAMGRYRQAPGKERELVAVITSDGRRNYADSVKGRFTISRDKAKNTVYFQINSLKPEDTAVSYCNKRSALSFVYDFDYWGQGTQVTVSS | low polyreactivity
QVQLVESGGGLVQAGGSLRLSCAASGRTFNSYAMGWSRQAPGKDRELVAAISRTGASTYYADSVKGRFTISRDNAQNTVYLQMHSLKPEDTAVYYCAADANSGDGYYWGHGTQVTVSS | high polyreactivity
